From paper PMC11237593, “Human coronavirus OC43 nanobody neutralizes virus and protects mice from infection” (Journal of Virology, 2024) come the findings set out here.

The chains are these.
T1: OC43 S1B+C (S1B and S1C domains of the hCoV-OC43 spike glycoprotein) (human coronavirus OC43, UniProt P36334 321-675)
T1 construct: also called recombinant OC43 S1B+C; recombinant OC43 protein; source: Expi293F, transfected, purified from supernatant (Ni-NTA IMAC, SEC); not shown: His6, C-terminal, cleaved
T1 sequence (looked up): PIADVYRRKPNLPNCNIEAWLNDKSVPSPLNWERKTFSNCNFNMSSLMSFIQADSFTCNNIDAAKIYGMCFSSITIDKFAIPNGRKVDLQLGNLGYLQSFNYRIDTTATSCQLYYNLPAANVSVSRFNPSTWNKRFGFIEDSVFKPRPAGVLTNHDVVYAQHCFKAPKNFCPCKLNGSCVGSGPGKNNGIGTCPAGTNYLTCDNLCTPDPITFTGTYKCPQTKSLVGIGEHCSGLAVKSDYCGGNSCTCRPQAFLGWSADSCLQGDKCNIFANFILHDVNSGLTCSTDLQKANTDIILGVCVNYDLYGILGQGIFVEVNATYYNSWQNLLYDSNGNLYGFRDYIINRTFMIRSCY

B1: WNb 299 (VHH)
VHH: QVQLQESGGGWVQPGGSLRLSCAASGFTFSNYAMGWFRQAPGKEREFVATISWSGGTTVYADSVKGRFTISRDNAKNTVYLQMNSLKPEDTAVYYCAAASDYGMVQMSDYEYDYWGQGTQVTVSS
B2: WNb 276 (VHH)
VHH: QVQLQESGGGLVQSGGSLRLSCAASGFTFSNYGMMWVRQAPGKGVEWVSRIDSDGTITLYKDSVKGRFTISRDNAKNMLYLQMESLKPEDTALYYCIKVMDWVPGRAPPFRGQGTQVTVSS
B3: WNb 282 (VHH)
VHH: QVQLQESGGGLVQAGDSLRLSCAASGRTFSDYFMGWFRQAPGKEREFVASISWSGGTTYYADSVKGRFTISRDNAKNTVYLQMNRVKSEDTAVYYCAAARDMGWGRTGENEYDYWGQGTQVTVSS
B4: WNb 284 (VHH)
VHH: QVQLQESGGGLVQAGGPLRLSCAASGRTFSDYFMGWFRQAPGMEREFVASISWSGGTTYYADSVKGRFTISRDNAKNTVYLQMNSLKPEDTAVYYCAAAIDYGLGLTVEYEYDYWGQGTQVTVSS
B5: WNb 278 (VHH)
VHH: QVQLQESGGGLVQAGGSLRLSCAASGRTFSDYFMGWFRQAPGMEREFVASISWSGGTTYYADSVKGRFTISRDNTKNTVYLQMNSLKPEDTAVYYCATAIDYGLGLTVEYEYDYWGQGTQVTVSS
B6: WNb 296 (VHH)
VHH: QVQLQESGGGLVQAGGSLRLSCAASGRTFSDYFMGWFRQAPGKEREFVASISWSGGTTYYADSVKGRFTISRDNANNTVYLQMNSLKPVDTAVYYCAAVADYGLGLTTSYEYDYWGQGTQVTVSS
B7: WNb 292 (VHH)
VHH: QVQLQESGGGLVQAGASLRLSCAASGRTFSDYAMGWFRQAPGKEREFVAAISWSGGTTYYADSVKGRFTISRDNAKNTVYLQMNSLKPEDTAVYYCAANTDYGLGLVRAYEYDYWGQGTQVTVSS
B8: WNb 285 (VHH)
VHH: QVQLQESGGGLVQAGGSLRLSCAASGRTFSDYAMGWFRQAPGKEREFVAAISWSGGTTYYADSVKGRFTISRDNAKNTVYLQMNSLTPEDTAVYYCAADYDYGWGRVRVSEYDYWGQGTQVTVSS
B9: WNb 291 (VHH)
VHH: QVQLQESGGGLVQAGGSLRLSCAASGRTFSNYFMGWFRQAPGKEREFVAAISWSGGTTYYADSVKGRFTISRDNAKNTVYLQMNSLKPEDTAVYYCAANTDYGMGFVRAYEYDYWGQGTQVTVSS
B10: WNb 280 (VHH)
VHH: QVQLQESGGGLVQAGGSLRLSCAASGRTFSNYFMGWFRQAPGKEREFVAAISWSGGSTYYTDSVKGRFTISRDNAKNTVYLQMNSLKPEDTAVYYCAGGLDMGWSRVNLGEYDYWGQGTQVTVSS
B11: WNb 279 (VHH)
VHH: QVQLQESGGGLVQPGGSLRLSCAASGRTFSDYFMGWFRQAPGKEREFVAAITWSGGSTYYTDSVKGRFTISRDNAKNTVYLQMNSLKPEDTAVYYCAGGLDMGWSRVALGEYDYWGQGTQVTVSS
B12: WNb 293 (VHH)
VHH: QVQLQESGGGSVQAGDSLRLSCVASGRTFSSYALGWFRRAPGKEREFVAAISWSGGTTYYADSVKGRFTISRDNAKNTVYLQMNSLKPEDTAVYYCAALWDGGSWYPEGLSDFGSWGQGTQVTVSS
B13: WNb 294 (VHH)
VHH: QVQLQESGGGLVQAGGSLRLSCAASGRTFSSYAMGWFRQAPGKEREFVAAISWSGGTTYYGDSVKGRFTISRDNAKNTVYLQMNSLKPEDTAVYYCAAQGDGGSWFPEGLADFGSWGQGTQVTVSS
B14: WNb 297 (VHH)
VHH: QVQLQESGGGSVQAGGSLRLSCAASGRTFSDYAMGWFRQAPGKEREFVASISWSGGTTYYADSVKGRFTISRDNAKNTVYLQMNSLKPEDTAVYYCAADTDYGMGLITVPDFGSWGQGTQVTVSS
B15: WNb 298 (VHH)
VHH: QVQLQESGGGLVQPGGSLRLSCAASGRTFSDYFMGWFRQAPGKEREFVASISWSGGTTYYADSVKGRFTISRDNAKNTVYLQMNSLKPEDTAVYYCAAEIDYGLGLHAAADFGSWGQGTQVTVSS
B16: WNb 289 (VHH)
VHH: QVQLQESGGGLVQAGGSLRLSCAASGRTFSDYAMGWFRQAPGKEREFVATISWSGGTTYYADSVKGRFTISRDNAKNTVYLQMNSLKPEDTAVYYCAAVMDLGMLAADGYEYDYWGQGTQVTVSS
B17: WNb 287 (VHH)
VHH: QLQESGGGLVQPGGSLRLSCAASGRTFSFSDYAMGWFRQAPGKEREFVASISWSGGTTYYADSVKGRFTISRDNAKNTVYLQMNSLKPEDTAVYYCAAEIDRGLLLHAVYEYDYWGQGTQVTVSS
B18: WNb 281 (VHH)
VHH: QVQLQESGGGLVQAGGSLRLSCAASGRTFSDYFMGWFRQAPGKEREFVTAISWSGGSTYYADSVKGRFTISRDNAKNTVFLQMNSLKPEDTAVYYCAAALDEGWARVAGPEYDYWGQGTQVTVSS
B19: WNb 288 (VHH)
VHH: QVQLQESGGGLVQAGGSLRLSCAASGRTFSDYFMGWFRQAPGKEREFVAAISWSGGSTYYADSVKGRSTISRDNAKNTVYLQMNSLKPEDTAVYYCAADHDRGWARLRLAEYDYWGQGTQVTVSS
B20: WNb 286 (VHH)
VHH: QVQLQESGGGLVQAGGSLRLSCAASGRTFSSYAMGWFHQAPGKEREFVASISWSGGTTYYADSVKGRFTISRDNAKNTVYLQMNSLKPEDTAVYYCAAAVDYGLGLYRVGEYDSWGQGTQVTVSS
B21: WNbFc 293 (Fc fusion)
chain: QVQLQESGGGSVQAGDSLRLSCVASGRTFSSYALGWFRRAPGKEREFVAAISWSGGTTYYADSVKGRFTISRDNAKNTVYLQMNSLKPEDTAVYYCAALWDGGSWYPEGLSDFGSWGQGTQVTVSS
notes: also called WNb 293-Fc; WNb 293-Fc fusion; source: Expi293F, transfected, purified from supernatant (MabSelect Prism A, SEC)
B22: WNbFc 294 (Fc fusion)
chain: QVQLQESGGGLVQAGGSLRLSCAASGRTFSSYAMGWFRQAPGKEREFVAAISWSGGTTYYGDSVKGRFTISRDNAKNTVYLQMNSLKPEDTAVYYCAAQGDGGSWFPEGLADFGSWGQGTQVTVSS
notes: source: Expi293F, transfected, purified from supernatant (MabSelect Prism A, SEC)

The first assay deals with T1, OC43 S1B+C (S1B and S1C domains of the …). The assay is described as follows: BLI. The conditions noted are these: both partners purified.
In general, Kd refers to the free concentration of one partner at which half of the binding sites on the other are occupied at equilibrium, for simple one-to-one binding. Low readings indicate higher affinity, high ones lower affinity. By koff is commonly meant the rate constant with which the complex falls apart. Low values mean slow dissociation, high ones fast dissociation. A word on the kon: it is a measure of how fast the partners come together. A lower kon goes with slow association. Molecule B1 displayed a Kd of 9.9 nM, a koff of 0.00103 s⁻¹ and an association rate constant (kon) of 104000 M⁻¹ s⁻¹.

With B2, binding was characterised by a dissociation constant (Kd) of 6.46 nM, the koff turned out to be 0.000518 s⁻¹ and the kon turned out to be 82000 M⁻¹ s⁻¹.

B3 came in with a Kd of 2.46 nM, a koff of 0.000195 s⁻¹ and a kon of 79000 M⁻¹ s⁻¹.

B4 returned a Kd of 4.01 nM, a koff of 0.000363 s⁻¹ and a kon of 91000 M⁻¹ s⁻¹.

As to B5, binding was put at a Kd of 5.93 nM, the koff worked out at 0.0004 s⁻¹ and the kon was 68000 M⁻¹ s⁻¹.

For B6, binding was put at a Kd of 15.3 nM, the koff stood at 0.000786 s⁻¹ and the kon stood at 51000 M⁻¹ s⁻¹.

The molecule B7 had a Kd of 15.6 nM, a koff of 0.00116 s⁻¹ and a kon of 75000 M⁻¹ s⁻¹.

Consider B8, for which the Kd was determined as 4.23 nM, the dissociation rate constant (koff) stood at 0.000447 s⁻¹ and the kon came out at 106000 M⁻¹ s⁻¹.

On to B9, for which the affinity, expressed as Kd, was 11.7 nM; the koff was 0.000527 s⁻¹; the kon was found to be 45000 M⁻¹ s⁻¹.

Turning to B10, the equilibrium dissociation constant (Kd) was 22.9 nM, the koff came to 0.00161 s⁻¹ and the kon was 70000 M⁻¹ s⁻¹.

As for B11, the Kd was determined as 149 nM, the koff was 0.0086 s⁻¹ and the kon is 58000 M⁻¹ s⁻¹.

Molecule B12 displayed a Kd of 4.6 nM, a dissociation rate constant (koff) of 0.000417 s⁻¹ and an association rate constant (kon) of 91000 M⁻¹ s⁻¹.

Take B13: binding was put at a Kd of 26 nM, the koff is 0.00106 s⁻¹ and the kon amounted to 41000 M⁻¹ s⁻¹.

Molecule B14 yielded a Kd of 21.4 nM, a koff of 0.00199 s⁻¹ and a kon of 93000 M⁻¹ s⁻¹.

For the molecule B15, binding was characterised by a dissociation constant (Kd) of 8.94 nM, the koff is 0.000987 s⁻¹ and the kon worked out at 111000 M⁻¹ s⁻¹.

In turn, B16 registered a Kd of 4.73 nM, a koff of 0.000629 s⁻¹ and a kon of 132000 M⁻¹ s⁻¹.

Molecule B17 had a dissociation constant (Kd) of 11.2 nM, a koff of 0.000933 s⁻¹ and a kon of 84000 M⁻¹ s⁻¹.

Molecule B18 came in with a Kd of 1.55 nM, an off-rate constant (koff) of 0.000183 s⁻¹ and a kon of 118000 M⁻¹ s⁻¹.

B19: binding was put at a Kd of 19.6 nM, the koff is 0.00124 s⁻¹ and the kon is 64000 M⁻¹ s⁻¹.

B20 displayed a Kd of 58.8 nM, a koff of 0.00245 s⁻¹ and a kon of 42000 M⁻¹ s⁻¹.

For another assay the target is unchanged.
Experiment: not given
The conditions noted are these: both partners purified.
The molecule B21 came in with a Kd of 7.51 nM, a koff of 0.000758 s⁻¹ and a kon of 101000 M⁻¹ s⁻¹.

Molecule B22 registered a Kd of 36.9 nM, a koff of 0.00164 s⁻¹ and a kon of 45000 M⁻¹ s⁻¹.
